From patent US20210032299A1 (Eli Lilly, published 2021)
Starred links: 1 amine or outer side, 2 acyl side, 3 side chain; linkers in the order of their positions; H or OH if unused. Non-standard residues stand in square brackets, D forms with d. Groups on a side chain read outwards from the residue. No end group written: not given here. *: point of attachment. C20 diacid = O=C(O)CCCCCCCCCCCCCCCCCCC(=O)*; C18 diacid = O=C(O)CCCCCCCCCCCCCCCCC(=O)*; γGlu = O=C(O)[C@H](CCC(=O)[*:2])N[*:1]; 4Pal = N[C@@H](Cc1ccncc1)C(=O)O; AEEA = NCCOCCOCC(=O)O; Aib = CC(C)(N)C(=O)O

T1: human glucose-dependent insulinotropic peptide receptor (human, UniProt P48546 22-466)
T1 sequence (looked up): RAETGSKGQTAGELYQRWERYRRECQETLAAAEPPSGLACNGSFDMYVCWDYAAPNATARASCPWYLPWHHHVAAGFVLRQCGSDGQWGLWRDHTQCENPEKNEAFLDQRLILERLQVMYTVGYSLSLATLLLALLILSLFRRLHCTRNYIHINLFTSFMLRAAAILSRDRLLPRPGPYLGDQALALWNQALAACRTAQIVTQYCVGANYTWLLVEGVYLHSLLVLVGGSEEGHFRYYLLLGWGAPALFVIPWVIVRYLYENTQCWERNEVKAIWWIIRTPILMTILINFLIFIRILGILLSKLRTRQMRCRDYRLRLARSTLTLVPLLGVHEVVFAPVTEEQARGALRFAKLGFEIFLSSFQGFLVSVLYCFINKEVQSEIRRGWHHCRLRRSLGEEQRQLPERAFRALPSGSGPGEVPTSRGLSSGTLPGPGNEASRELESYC


Tests used:
Assay in all cases: cell-based or functional assay
human glucagon receptor = human glucagon receptor (human, UniProt P47871 26-477)
[1] = target: T1, human glucose-dependent insulinotropic …
human GLP-1 receptor = human GLP-1 receptor (human, UniProt P43220 24-463)

human glucagon receptor, sequence (P47871 26-477): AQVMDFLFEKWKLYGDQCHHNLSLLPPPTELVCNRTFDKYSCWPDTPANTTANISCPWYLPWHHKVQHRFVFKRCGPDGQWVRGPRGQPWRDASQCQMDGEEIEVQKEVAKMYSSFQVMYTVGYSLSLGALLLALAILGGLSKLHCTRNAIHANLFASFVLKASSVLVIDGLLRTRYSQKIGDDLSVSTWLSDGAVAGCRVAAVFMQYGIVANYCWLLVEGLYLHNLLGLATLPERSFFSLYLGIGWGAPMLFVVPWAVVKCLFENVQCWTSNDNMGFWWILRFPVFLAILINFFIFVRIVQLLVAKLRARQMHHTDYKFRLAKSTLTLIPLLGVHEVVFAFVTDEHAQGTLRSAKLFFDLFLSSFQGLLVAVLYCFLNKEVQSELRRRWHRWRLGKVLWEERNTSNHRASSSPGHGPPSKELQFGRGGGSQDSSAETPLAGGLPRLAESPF

Binder	hGcgR cAMP Rel EC50 (human glucagon receptor)	hGIPR cAMP Rel EC50 [1]	hGLP1R cAMP Rel EC50 (human GLP-1 receptor)
Y[dA]EGTFISDYSILLDKK([AEEA-AEEA-γGlu-C20 diacid])HQQDFVEWLLAQGPSSGAPPPS-NH2 (N-terminus assumed; SMILES CC[C@H](C)[C@H](NC(=O)[C@H](CO)NC(=O)[C@H](Cc1ccc(O)cc1)NC(=O)[C@H](CC(=O)O)NC(=O)[C@H](CO)NC(=O)[C@@H](NC(=O)[C@H](Cc1ccccc1)NC(=O)[C@@H](NC(=O)CNC(=O)[C@H](CCC(=O)O)NC(=O)[C@@H](C)NC(=O)[C@@H](N)Cc1ccc(O)cc1)[C@@H](C)O)[C@@H](C)CC)C(=O)N[C@@H](CC(C)C)C(=O)N[C@@H](CC(C)C)C(=O)N[C@@H](CC(=O)O)C(=O)N[C@@H](CCCCN)C(=O)N[C@@H](CCCCNC(=O)COCCOCCNC(=O)COCCOCCNC(=O)CC[C@H](NC(=O)CCCCCCCCCCCCCCCCCCC(=O)O)C(=O)O)C(=O)N[C@@H](Cc1c[nH]cn1)C(=O)N[C@@H](CCC(N)=O)C(=O)N[C@@H](CCC(N)=O)C(=O)N[C@@H](CC(=O)O)C(=O)N[C@@H](Cc1ccccc1)C(=O)N[C@H](C(=O)N[C@@H](CCC(=O)O)C(=O)N[C@@H](Cc1c[nH]c2ccccc12)C(=O)N[C@@H](CC(C)C)C(=O)N[C@@H](CC(C)C)C(=O)N[C@@H](C)C(=O)N[C@@H](CCC(N)=O)C(=O)NCC(=O)N1CCC[C@H]1C(=O)N[C@@H](CO)C(=O)N[C@@H](CO)C(=O)NCC(=O)N[C@@H](C)C(=O)N1CCC[C@H]1C(=O)N1CCC[C@H]1C(=O)N1CCC[C@H]1C(=O)N[C@@H](CO)C(N)=O)C(C)C) [Example 14]	> 5000 nM	0.34 nM	> 100 nM
Y[dA]EGTFISDYSILLDKK([AEEA-AEEA-γGlu-C20 diacid])HQQEFVNWLLAQGPSSGAPPPS-NH2 (N-terminus assumed; SMILES CC[C@H](C)[C@H](NC(=O)[C@H](CO)NC(=O)[C@H](Cc1ccc(O)cc1)NC(=O)[C@H](CC(=O)O)NC(=O)[C@H](CO)NC(=O)[C@@H](NC(=O)[C@H](Cc1ccccc1)NC(=O)[C@@H](NC(=O)CNC(=O)[C@H](CCC(=O)O)NC(=O)[C@@H](C)NC(=O)[C@@H](N)Cc1ccc(O)cc1)[C@@H](C)O)[C@@H](C)CC)C(=O)N[C@@H](CC(C)C)C(=O)N[C@@H](CC(C)C)C(=O)N[C@@H](CC(=O)O)C(=O)N[C@@H](CCCCN)C(=O)N[C@@H](CCCCNC(=O)COCCOCCNC(=O)COCCOCCNC(=O)CC[C@H](NC(=O)CCCCCCCCCCCCCCCCCCC(=O)O)C(=O)O)C(=O)N[C@@H](Cc1c[nH]cn1)C(=O)N[C@@H](CCC(N)=O)C(=O)N[C@@H](CCC(N)=O)C(=O)N[C@@H](CCC(=O)O)C(=O)N[C@@H](Cc1ccccc1)C(=O)N[C@H](C(=O)N[C@@H](CC(N)=O)C(=O)N[C@@H](Cc1c[nH]c2ccccc12)C(=O)N[C@@H](CC(C)C)C(=O)N[C@@H](CC(C)C)C(=O)N[C@@H](C)C(=O)N[C@@H](CCC(N)=O)C(=O)NCC(=O)N1CCC[C@H]1C(=O)N[C@@H](CO)C(=O)N[C@@H](CO)C(=O)NCC(=O)N[C@@H](C)C(=O)N1CCC[C@H]1C(=O)N1CCC[C@H]1C(=O)N1CCC[C@H]1C(=O)N[C@@H](CO)C(N)=O)C(C)C) [Example 13]	> 5000 nM	0.129 nM	> 100 nM
Y[dA]EGTFISDYSILLDKK([AEEA-AEEA-γGlu-C20 diacid])HQQDFVNYLLAQGPSSGAPPPS-NH2 (N-terminus assumed; SMILES CC[C@H](C)[C@H](NC(=O)[C@H](CO)NC(=O)[C@H](Cc1ccc(O)cc1)NC(=O)[C@H](CC(=O)O)NC(=O)[C@H](CO)NC(=O)[C@@H](NC(=O)[C@H](Cc1ccccc1)NC(=O)[C@@H](NC(=O)CNC(=O)[C@H](CCC(=O)O)NC(=O)[C@@H](C)NC(=O)[C@@H](N)Cc1ccc(O)cc1)[C@@H](C)O)[C@@H](C)CC)C(=O)N[C@@H](CC(C)C)C(=O)N[C@@H](CC(C)C)C(=O)N[C@@H](CC(=O)O)C(=O)N[C@@H](CCCCN)C(=O)N[C@@H](CCCCNC(=O)COCCOCCNC(=O)COCCOCCNC(=O)CC[C@H](NC(=O)CCCCCCCCCCCCCCCCCCC(=O)O)C(=O)O)C(=O)N[C@@H](Cc1c[nH]cn1)C(=O)N[C@@H](CCC(N)=O)C(=O)N[C@@H](CCC(N)=O)C(=O)N[C@@H](CC(=O)O)C(=O)N[C@@H](Cc1ccccc1)C(=O)N[C@H](C(=O)N[C@@H](CC(N)=O)C(=O)N[C@@H](Cc1ccc(O)cc1)C(=O)N[C@@H](CC(C)C)C(=O)N[C@@H](CC(C)C)C(=O)N[C@@H](C)C(=O)N[C@@H](CCC(N)=O)C(=O)NCC(=O)N1CCC[C@H]1C(=O)N[C@@H](CO)C(=O)N[C@@H](CO)C(=O)NCC(=O)N[C@@H](C)C(=O)N1CCC[C@H]1C(=O)N1CCC[C@H]1C(=O)N1CCC[C@H]1C(=O)N[C@@H](CO)C(N)=O)C(C)C) [Example 15]	> 5000 nM	0.282 nM	> 100 nM
YXEGTFISDYSILLDKKAQXDFVEWLLAQGPSSGAPPPS (D-Ala2; K17((2-[2-(2-Amino-ethoxy)-ethoxy]-acetyl)2-(γ-Glu)-CO-(CH2)16-CO2H); Aib20; C-terminal amide) [Example 16]	> 5000 nM	0.00937 nM	> 5000 nM
YXEGTFISDYSILLDKKAQXEFVNWLLAQGPSSGAPPPS (D-Ala2; K17((2-[2-(2-Amino-ethoxy)-ethoxy]-acetyl)2-(γ-Glu)-CO-(CH2)16-CO2H); Aib20; C-terminal amide) [Example 20]	> 5000 nM	0.00933 nM	> 5000 nM
YXEGTFISDYSILLDKKAQXDFVNWLLEQGPSSGAPPPS (D-Ala2; K17((2-[2-(2-Amino-ethoxy)-ethoxy]-acetyl)2-(γ-Glu)-CO-(CH2)16-CO2H); Aib20; C-terminal amide) [Example 17]	> 5000 nM	0.0135 nM	> 5000 nM
YXEGTFISDYSILLDKKAQXDFVNXLLAQGPSSGAPPPS (D-Ala2; K17((2-[2-(2-Amino-ethoxy)-ethoxy]-acetyl)2-(γ-Glu)-CO-(CH2)16-CO2H); Aib20; 4-Pal25; C-terminal amide) [Example 18]	> 5000 nM	0.00656 nM	> 5000 nM
YXEGTFISDYSILLDKKAQXDFVNWLLAGGPSSGAPPPS (D-Ala2; K17((2-[2-(2-Amino-ethoxy)-ethoxy]-acetyl)2-(γ-Glu)-CO-(CH2)16-CO2H); Aib20; C-terminal amide) [Example 19]	> 5000 nM	0.00992 nM	> 5000 nM
Y[Aib]EGTFISDYSIALDKK([AEEA-AEEA-γGlu-C18 diacid])HQ[Aib]DFVE[4Pal]LLAGGPSSGAPPPS-NH2 (N-terminus assumed; SMILES CC[C@H](C)[C@H](NC(=O)[C@H](CO)NC(=O)[C@H](Cc1ccc(O)cc1)NC(=O)[C@H](CC(=O)O)NC(=O)[C@H](CO)NC(=O)[C@@H](NC(=O)[C@H](Cc1ccccc1)NC(=O)[C@@H](NC(=O)CNC(=O)[C@H](CCC(=O)O)NC(=O)C(C)(C)NC(=O)[C@@H](N)Cc1ccc(O)cc1)[C@@H](C)O)[C@@H](C)CC)C(=O)N[C@@H](C)C(=O)N[C@@H](CC(C)C)C(=O)N[C@@H](CC(=O)O)C(=O)N[C@@H](CCCCN)C(=O)N[C@@H](CCCCNC(=O)COCCOCCNC(=O)COCCOCCNC(=O)CC[C@H](NC(=O)CCCCCCCCCCCCCCCCC(=O)O)C(=O)O)C(=O)N[C@@H](Cc1c[nH]cn1)C(=O)N[C@@H](CCC(N)=O)C(=O)NC(C)(C)C(=O)N[C@@H](CC(=O)O)C(=O)N[C@@H](Cc1ccccc1)C(=O)N[C@H](C(=O)N[C@@H](CCC(=O)O)C(=O)N[C@@H](Cc1ccncc1)C(=O)N[C@@H](CC(C)C)C(=O)N[C@@H](CC(C)C)C(=O)N[C@@H](C)C(=O)NCC(=O)NCC(=O)N1CCC[C@H]1C(=O)N[C@@H](CO)C(=O)N[C@@H](CO)C(=O)NCC(=O)N[C@@H](C)C(=O)N1CCC[C@H]1C(=O)N1CCC[C@H]1C(=O)N1CCC[C@H]1C(=O)N[C@@H](CO)C(N)=O)C(C)C) [Example 21]	> 5000 nM	0.291 nM	> 5000 nM
Y[Aib]EGTFISDYSILLDKK([AEEA-AEEA-γGlu-C18 diacid])HQ[Aib]DFVE[4Pal]LLAGGPSSGAPPPS-NH2 (N-terminus assumed; SMILES CC[C@H](C)[C@H](NC(=O)[C@H](CO)NC(=O)[C@H](Cc1ccc(O)cc1)NC(=O)[C@H](CC(=O)O)NC(=O)[C@H](CO)NC(=O)[C@@H](NC(=O)[C@H](Cc1ccccc1)NC(=O)[C@@H](NC(=O)CNC(=O)[C@H](CCC(=O)O)NC(=O)C(C)(C)NC(=O)[C@@H](N)Cc1ccc(O)cc1)[C@@H](C)O)[C@@H](C)CC)C(=O)N[C@@H](CC(C)C)C(=O)N[C@@H](CC(C)C)C(=O)N[C@@H](CC(=O)O)C(=O)N[C@@H](CCCCN)C(=O)N[C@@H](CCCCNC(=O)COCCOCCNC(=O)COCCOCCNC(=O)CC[C@H](NC(=O)CCCCCCCCCCCCCCCCC(=O)O)C(=O)O)C(=O)N[C@@H](Cc1c[nH]cn1)C(=O)N[C@@H](CCC(N)=O)C(=O)NC(C)(C)C(=O)N[C@@H](CC(=O)O)C(=O)N[C@@H](Cc1ccccc1)C(=O)N[C@H](C(=O)N[C@@H](CCC(=O)O)C(=O)N[C@@H](Cc1ccncc1)C(=O)N[C@@H](CC(C)C)C(=O)N[C@@H](CC(C)C)C(=O)N[C@@H](C)C(=O)NCC(=O)NCC(=O)N1CCC[C@H]1C(=O)N[C@@H](CO)C(=O)N[C@@H](CO)C(=O)NCC(=O)N[C@@H](C)C(=O)N1CCC[C@H]1C(=O)N1CCC[C@H]1C(=O)N1CCC[C@H]1C(=O)N[C@@H](CO)C(N)=O)C(C)C) [Example 22]	1250 nM	0.0345 nM	> 5000 nM
